The text below walks through data of paper PMC6453957, “Specific inhibition of splicing factor activity by decoy RNA oligonucleotides”.

For this series, the target named is T1, RBFOX1 RRM (UniProt Q9NWB1 109-208).
T1 sequence: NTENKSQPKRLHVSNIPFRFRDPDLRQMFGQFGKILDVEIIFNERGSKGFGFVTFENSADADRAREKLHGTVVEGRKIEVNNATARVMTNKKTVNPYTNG
The experiment in a line: NMR 1H-15N HSQC titration; 313 K; very large perturbations; switchSENSE titration: T100 (10 mM Tris-HCl pH 7.4, 100 mM NaCl, 0.05% Tween20), 37 C; sizing: T40 (same with 40 mM NaCl), 37 C; NMR: NMR buffer (RNA in T40), 313 K. As to conditions: protein: recombinant; tags: N-terminal 6xHis; single strand.

B1: RBFOXi NMR RNA (ssRNA)
RNA: UGCAUGU
For B1, the binding result is “binds”.
